Results published in publication doi:10.1101/2020.01.10.902072 (bioRxiv, 2020).

Molecular target: the molecule itself
Experiment: cryo-EM structure

B1: rat GluD2 receptor, C-terminally truncated at residue 870 (GluD2Δ870) (receptor, UniProt Q63226 24-870, looked up)
chain: DSIIHIGAIFDESAKKDDEVFRTAVGDLNQNEEILQTEKITFSVTFVDGNNPFQAVQEACELMNQGILALVSSIGCTSAGSLQSLADAMHIPHLFIQRSTAGTPRSGCGLTRSNRNDDYTLSVRPPVYLNEVILRVVTEYAWQKFIIFYDSEYDIRGIQEFLDKVSQQGMDVALQKVENNINKMITTLFDTMRIEELNRYRDTLRRAILVMNPATAKSFISEVVETNLVAFDCHWIIINEEINDVDVQELVRRSIGRLTIIRQTFPVPQNISQRCFRGNHRISSTLCDPKDPFAQNMEISNLYIYDTVLLLANAFHKKLEDRKWHSMASLSCIRKNSKPWQGGRSMLETIKKGGVNGLTGDLEFGENGGNPNVHFEILGTNYGEELGRGVRKLGCWNPVTGLNGSLTDKKLENNMRGVVLRVVTVLEEPFVMVSENVLGKPKKYQGFSIDVLDALSNYLGFNYEIYVAPDHKYGSPQEDGTWNGLVGELVFKRADIGISALTITPDRENVVDFTTRYMDYSVGVLLRRAEKTVDMFACLAPFDLSLWACIAGTVLLVGLLVYLLNWLNPPRLQMGSMTSTTLYNSMWFVYGSFVQQGGEVPYTTLATRMMMGAWWLFALIVISSYTANLAAFLTITRIESSIQSLQDLSKQTDIPYGTVLDSAVYQHVRMKGLNPFERDSMYSQMWRMINRSNGSENNVLESQAGIQKVKYGNYAFVWDAAVLEYVAINDPDCSFYTVGNTVADRGYGIALQHGSPYRDVFSQRILELQQSGDMDILKHKWWPKNGQCDLYSSVDAKQKGGALDIKSLAGVFCILAAGIVLSCLIAVLETWWSRRKGSRVPSKEDDK
- stoichiometry N: 4
